Experiments:
Assay in all cases: co-IP with anti-FLAG, C-FLAG B3GNT2, mass spectrometry
TGM1 = molecular target: T1, TGM1 (human, UniProt P22735 1-817, limits assumed)
T1 construct: also called NP_000350.1
T1 sequence (looked up): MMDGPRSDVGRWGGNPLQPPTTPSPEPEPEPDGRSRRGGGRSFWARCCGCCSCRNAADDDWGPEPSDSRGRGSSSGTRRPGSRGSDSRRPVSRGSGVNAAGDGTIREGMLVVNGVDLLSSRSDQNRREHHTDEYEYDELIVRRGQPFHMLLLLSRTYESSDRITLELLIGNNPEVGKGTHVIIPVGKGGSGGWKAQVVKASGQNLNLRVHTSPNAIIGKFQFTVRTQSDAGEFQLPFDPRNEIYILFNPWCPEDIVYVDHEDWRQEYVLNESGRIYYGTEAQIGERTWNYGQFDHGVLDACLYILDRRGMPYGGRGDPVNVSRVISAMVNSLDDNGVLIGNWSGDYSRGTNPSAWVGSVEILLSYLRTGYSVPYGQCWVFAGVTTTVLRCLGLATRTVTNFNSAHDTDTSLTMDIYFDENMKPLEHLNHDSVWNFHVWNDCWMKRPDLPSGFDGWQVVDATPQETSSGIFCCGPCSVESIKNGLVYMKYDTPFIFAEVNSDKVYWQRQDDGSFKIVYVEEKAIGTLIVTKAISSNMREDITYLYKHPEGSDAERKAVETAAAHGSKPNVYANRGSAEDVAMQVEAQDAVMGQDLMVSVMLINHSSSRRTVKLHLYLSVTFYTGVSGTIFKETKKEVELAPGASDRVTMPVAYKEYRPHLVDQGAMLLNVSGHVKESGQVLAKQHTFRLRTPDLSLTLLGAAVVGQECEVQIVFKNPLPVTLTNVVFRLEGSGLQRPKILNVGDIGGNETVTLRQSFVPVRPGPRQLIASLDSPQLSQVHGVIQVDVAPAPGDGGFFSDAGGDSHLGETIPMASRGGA

CPSF7 = molecular target: T2, CPSF7 (human, UniProt Q8N684 1-471)
T2 construct: also called NP_001129512.1 (+5)
T2 sequence (looked up): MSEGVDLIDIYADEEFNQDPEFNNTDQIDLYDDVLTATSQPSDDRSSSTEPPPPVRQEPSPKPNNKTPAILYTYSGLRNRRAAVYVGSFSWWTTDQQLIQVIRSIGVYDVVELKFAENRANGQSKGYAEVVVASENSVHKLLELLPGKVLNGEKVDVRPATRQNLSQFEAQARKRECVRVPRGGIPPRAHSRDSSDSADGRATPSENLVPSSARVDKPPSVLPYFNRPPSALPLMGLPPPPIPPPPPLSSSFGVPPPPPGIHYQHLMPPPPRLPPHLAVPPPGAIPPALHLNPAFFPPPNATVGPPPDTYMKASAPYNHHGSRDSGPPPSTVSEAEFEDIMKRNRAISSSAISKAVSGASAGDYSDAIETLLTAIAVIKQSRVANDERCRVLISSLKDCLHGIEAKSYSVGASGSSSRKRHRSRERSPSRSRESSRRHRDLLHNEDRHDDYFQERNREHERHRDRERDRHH

SRSF6 = molecular target: T3, SRSF6 (human, UniProt Q13247 1-344)
T3 construct: also called NP_006266.2
T3 sequence (looked up): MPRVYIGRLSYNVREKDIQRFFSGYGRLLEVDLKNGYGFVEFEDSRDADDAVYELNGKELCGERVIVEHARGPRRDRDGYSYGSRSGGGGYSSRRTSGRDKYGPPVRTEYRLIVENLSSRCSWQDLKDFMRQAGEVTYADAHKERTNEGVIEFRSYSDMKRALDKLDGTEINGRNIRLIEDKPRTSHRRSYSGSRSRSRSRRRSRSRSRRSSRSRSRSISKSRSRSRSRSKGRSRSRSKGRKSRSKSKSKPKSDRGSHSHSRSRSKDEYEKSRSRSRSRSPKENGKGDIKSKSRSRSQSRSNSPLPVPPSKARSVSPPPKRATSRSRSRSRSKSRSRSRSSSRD

PSMA3 = molecular target: T4, PSMA3 (human, UniProt P25788 2-255)
T4 construct: also called NP_002779.1 (+1)
T4 sequence (looked up): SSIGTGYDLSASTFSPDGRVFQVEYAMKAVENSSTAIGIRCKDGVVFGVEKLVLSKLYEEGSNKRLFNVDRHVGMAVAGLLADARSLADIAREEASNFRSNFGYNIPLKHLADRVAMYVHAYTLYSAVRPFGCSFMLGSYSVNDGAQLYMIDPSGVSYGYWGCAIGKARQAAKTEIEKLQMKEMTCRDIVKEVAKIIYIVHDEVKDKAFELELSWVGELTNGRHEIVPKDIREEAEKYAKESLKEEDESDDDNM

PSMB5 = molecular target: T5, PSMB5 (human, UniProt P28074 60-263)
T5 construct: also called NP_002788.1
T5 sequence (P28074 60-263 limits assumed): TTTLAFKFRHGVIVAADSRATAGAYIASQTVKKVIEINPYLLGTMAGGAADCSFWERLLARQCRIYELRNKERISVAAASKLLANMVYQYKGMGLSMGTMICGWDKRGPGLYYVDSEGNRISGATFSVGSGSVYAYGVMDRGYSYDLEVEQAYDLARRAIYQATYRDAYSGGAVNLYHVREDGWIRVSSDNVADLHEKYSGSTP

B1: C-terminal FLAG tagged B3GNT2 (enzyme, human, UniProt Q9NY97 1-397, looked up)
chain: MSVGRRRIKLLGILMMANVFIYFIMEVSKSSSQEKNGKGEVIIPKEKFWKISTPPEAYWNREQEKLNRQYNPILSMLTNQTGEAGRLSNISHLNYCEPDLRVTSVVTGFNNLPDRFKDFLLYLRCRNYSLLIDQPDKCAKKPFLLLAIKSLTPHFARRQAIRESWGQESNAGNQTVVRVFLLGQTPPEDNHPDLSDMLKFESEKHQDILMWNYRDTFFNLSLKEVLFLRWVSTSCPDTEFVFKGDDDVFVNTHHILNYLNSLSKTKAKDLFIGDVIHNAGPHRDKKLKYYIPEVVYSGLYPPYAGGGGFLYSGHLALRLYHITDQVHLYPIDDVYTGMCLQKLGLVPEKHKGFRTFDIEEKNKNNICSYVDLMLVHSRKPQEMIDIWSQLQSAHLKC
notes: FLAG-tagged ORF overexpressed in A375 cells; pulled down from the lysate with mouse anti-FLAG; also called C-FLAG B3GNT2; C-term flag; not shown: C-terminal FLAG tag
co-IP/MS count, C-term flag (TGM1): 8 | co-IP/MS count, C-term flag (CPSF7): 9 | co-IP/MS count, C-term flag (SRSF6): 4 | co-IP/MS count, C-term flag (PSMA3): 0 | co-IP/MS count, C-term flag (PSMB5): 0

From patent US20240261333A1 (published 2024)
